Assay results: patent JP2022142155A (dated 2022)

B1: 配列番号:36により表されるアミノ酸配列を含む抗HSA抗体 (VHH)
VHH: EVQLVESGGGFVQPGGSLRLSCVASGFTFERFDMGWVRQAPGKSLEWVSRFNSDDGRKSYADSVKGRFAISRDNAENTLYLQMNNLIPEDTAMYYCVKCQAYTSCTDAEDRGQGTQVTVSS
notes: Expressed in E. coli BL21(DE3) pLysS from pRA2(+) behind a vector-encoded leader; also called H01A; H01A; not shown: C-terminal His tag from vector pRA2(+) (Ni-NTA purification, anti-His detection)
B2: 配列番号:40により表されるアミノ酸配列を含む抗HSA抗体 (VHH)
VHH: QVQLVESGGGLVQAGKSLRLSCTASGSIPSIGVTGWHRQAPGKQRELVATISQGGHINYFESVKGRFTISRDNAKNTVYLQMNSLKPEDTGVYYCNAFWLPLRLNDYWGQGTQVTVSS
notes: Expressed in E. coli from pRA2(+); also called H32A; H32A; not shown: C-terminal His tag from vector pRA2(+) (Ni-NTA purification, anti-His detection)
B3: 配列番号:39により表されるアミノ酸配列を含む抗HSA抗体 (VHH)
VHH: QLQLVESGGGLVQAGGSLRLSCAASGRTFRFSAMGWFRQAPGKEREFAAAISWTGGTTAYAESVKGRFIISRDNAKNTVYLQMNSLKPEDTAVYYCAAGPIPSPASRYDDWGQGTQVTVSS
notes: Expressed in E. coli from pRA2(+); also called H14A; H14A; not shown: C-terminal His tag from vector pRA2(+) (Ni-NTA purification, anti-His detection)
B4: 配列番号:38により表されるアミノ酸配列を含む抗HSA抗体 (VHH)
VHH: QVQLVESGGGLVQTGGSLRLSCAASGRIVTVAAMGWFRQAPGKEREFVASISWSGRSRSYADSVKGRFTISRDNAKNTAYLQMSSLKPEDTGVYYCALGGNSYSSDYARYDYWGQGTQVTVSS
notes: Expressed in E. coli from pRA2(+); also called H10A; H10A; not shown: C-terminal His tag from vector pRA2(+) (Ni-NTA purification, anti-His detection)
B5: 配列番号:37により表されるアミノ酸配列を含む抗HSA抗体 (VHH)
VHH: EVQLVESGGGLVHPGGSLRLSCVASGSDVSSDTMGWFRRAPGKQRELVAAIAWGGSTHYAESVKGRFTISRDNAKNTVYLQLSNLKPEDTAVYLCNTRNYWGQGTQVTVSS
notes: Expressed in E. coli from pRA2(+); also called H08A; H08A; not shown: C-terminal His tag from vector pRA2(+) (Ni-NTA purification, anti-His detection)

What follows are binders tested against T1, ヒト血清アルブミン (human, UniProt P02768 25-609) (assay: SPR (Biacore T200), HSA amine-coupled on CM5 chip, VHH as analyte).
T1 construct: also called HSA; HSA
T1 sequence (P02768 25-609 limits assumed): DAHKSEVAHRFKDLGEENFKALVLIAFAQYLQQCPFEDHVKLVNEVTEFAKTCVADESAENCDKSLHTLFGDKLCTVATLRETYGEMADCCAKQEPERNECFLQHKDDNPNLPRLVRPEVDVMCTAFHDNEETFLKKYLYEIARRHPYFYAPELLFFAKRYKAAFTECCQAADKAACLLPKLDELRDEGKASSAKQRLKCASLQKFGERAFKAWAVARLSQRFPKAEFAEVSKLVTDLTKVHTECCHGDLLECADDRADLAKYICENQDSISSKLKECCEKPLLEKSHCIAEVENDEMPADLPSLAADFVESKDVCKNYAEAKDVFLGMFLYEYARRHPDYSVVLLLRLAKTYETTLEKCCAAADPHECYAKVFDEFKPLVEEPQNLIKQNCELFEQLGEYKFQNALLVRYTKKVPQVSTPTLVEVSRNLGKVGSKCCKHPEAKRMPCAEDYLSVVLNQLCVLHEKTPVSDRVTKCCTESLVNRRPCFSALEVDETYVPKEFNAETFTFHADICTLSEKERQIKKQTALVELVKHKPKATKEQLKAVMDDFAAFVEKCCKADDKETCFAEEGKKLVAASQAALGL
Binder B1 has a Kd of 22.9 nM.
B2 showed a Kd of 0.077 nM.
B3 was tested, and the Kd was 296 nM.
In the case of B4, the Kd is reported as 124 nM.
With B5 the Kd was 62.2 nM.
